Assay results published in patent US20210318312.

Legend:
H3 K9 Lipoyl peptide = biological target: T1, H3 K9 Lipoyl peptide
T1 chain: KQTARKSTGGWW

H3 K9 Acetyl peptide = biological target: T2, H3 K9 Acetyl peptide
T2 chain: KQTARKSTGGWW

H3 K9 Biotinyl peptide = biological target: T3, H3 K9 Biotinyl peptide
T3 chain: KQTARKSTGGWW

[1] = biological target: purified porcine heart pyruvate dehydrogenase (Sigma-Aldrich, cat. #P7032)
DLAT K259 Acetyl peptide = biological target: T4, DLAT K259 Acetyl peptide
T4 chain: EIETDKATIGW

[2] = biological target: T5, lipoyl-modified DLAT peptide of the LC-MS deacylation assay
T5 chain: EIETDKATIGWW

DLAT K259 Lipoyl peptide = biological target: T6, DLAT K259 Lipoyl peptide
T6 chain: EIETDKATIGWW

[3] = biological target: T7, lipoyl-modified PDHX peptide
T7 chain: EIETDKAVVTWW

B1: recombinant SIRT4 (N-terminally truncated human Sirt4, 33-314 of SEQ ID NO: 2) (protein)
chain: VPASPPLDPEKVKELQRFITLSKRLLVMTGAGISTESGIPDYRSEKVGLYARTDRRPIQHGDFVRSAPIRQRYWARNFVGWPQFSSHQPNPAHWALSTWEKLGKLYWLVTQNVDALHTKAGSRRLTELHGCMDRVLCLDCGEQTPRGVLQERFQVLNPTWSAEAHGLAPDGDVFLSEEQVRSFQVPTCVQCGGHLKPDVVFFGDTVNPDKVDFVHKRVKEADSLLVVGSSLQVYSGYRFILTAWEKKLPIAILNIGPTRSDDLACLKLNSRCGELLPLIDPC
H3 K9 Lipoyl peptide
  Km: 814 µM
  LC-MS-based deacylation assay, hydrolysis of the acyl-lysine modification: SIRT4 was able to hydrolyze all three modifications
  catalytic efficiency, fold (another experiment): lipoyl (28-fold)
  catalytic efficiency, fold against acetylated H3K9: lipoyl (SEQ ID NO: 3 (30-fold)
  kcat: 0.0019 s⁻¹
  kcat/Km: 2.3 s^-1M^-1
  relative amount of unmodified product generated using 5 µM SIRT4: 11% (lipoyl-SEQ ID NO: 3)
H3 K9 Acetyl peptide
  Km: ND* (>2500)
  LC-MS-based deacylation assay, hydrolysis of the acyl-lysine modification: SIRT4 was able to hydrolyze all three modifications
  kcat/Km: 0.083 s^-1M^-1
  relative amount of unmodified product generated using 5 µM SIRT4: 0.3% (acetyl-SEQ ID NO: 3)
H3 K9 Biotinyl peptide
  Km: 719 µM
  LC-MS-based deacylation assay, hydrolysis of the acyl-lysine modification: SIRT4 was able to hydrolyze all three modifications
  catalytic efficiency, fold (another experiment): biotinyl (9-fold)
  catalytic efficiency, fold against acetylated H3K9: biotinyl (SEQ ID NO: 4) (11-fold)
  kcat: 0.0005 s⁻¹
  kcat/Km: 0.74 s^-1M^-1
  relative amount of unmodified product generated using 5 µM SIRT4: 3% (biotinyl-SEQ ID NO: 4)
[1]
  PDH activity, immuno-capture colorimetric assay: only active SIRT4 was able to attenuate PDH activity
DLAT K259 Acetyl peptide
  Km: ND* (>2500)
  catalytic efficiency, fold lower than DLAT lipoyl: this efficiency was still 38-fold lower than DLAT lipoyl
  kcat: 0.0011 s⁻¹
  kcat/Km: 0.2 s^-1M^-1
[2]
  proportion of unmodified peptide generated following reaction: increased to 33% for DLAT (SEQ ID NO: 11)
DLAT K259 Lipoyl peptide
  Km: 239 µM
  catalytic efficiency, fold against H3K9 lipoyl: 3.5-fold increased efficiency compared to H3K9 lipoyl
  catalytic efficiency, fold against H3K9 lipoyl (another experiment): 3.3-fold increase in efficiency compared to H3K9 lipoyl
  catalytic efficiency, fold against deacetylation of MCD: ˜1270-fold more efficient at hydrolyzing the DLAT lipoamide
  kcat: 0.0016 s⁻¹
  kcat/Km: 7.65 s^-1M^-1
[3]
  proportion of unmodified peptide generated following reaction: 42% for PDHX (SEQ ID NO: 13)
MCD K471 Acetyl peptide
  Km: ND (>2500)
  kcat/Km: 0.0064 s^-1M^-1

B2: recombinant SIRT4 H161Y catalytic mutant (protein)
chain: VPASPPLDPEKVKELQRFITLSKRLLVMTGAGISTESGIPDYRSEKVGLYARTDRRPIQHGDFVRSAPIRQRYWARNFVGWPQFSSHQPNPAHWALSTWEKLGKLYWLVTQNVDALHTKAGSRRLTELYGCMDRVLCLDCGEQTPRGVLQERFQVLNPTWSAEAHGLAPDGDVFLSEEQVRSFQVPTCVQCGGHLKPDVVFFGDTVNPDKVDFVHKRVKEADSLLVVGSSLQVYSGYRFILTAWEKKLPIAILNIGPTRSDDLACLKLNSRCGELLPLIDPC
H3 K9 Lipoyl peptide
  LC-MS-based deacylation assay: observed no significant activity for any of these substrates
H3 K9 Acetyl peptide
  LC-MS-based deacylation assay: observed no significant activity for any of these substrates
H3 K9 Biotinyl peptide
  LC-MS-based deacylation assay: observed no significant activity for any of these substrates
[1]
  PDH activity, immuno-capture colorimetric assay: only active SIRT4 was able to attenuate PDH activity

B3: recombinant SIRT3 (Sigma, cat. #SRP0117-100UG) (protein)
chain: ISFSVGASSVVGSGGSSDKGKLSLQDVAELIRARACQRVVVMVGAGISTPSGIPDFRSPGSGLYSNLQQYDLPYPEAIFELPFFFHNPKPFFTLAKELYPGNYKPNVTHYFLRLLHDKGLLLRLYTQNIDGLERVSGIPASKLVEAHGTFASATCTVCQRPFPGEDIRADVMADRVPRCPVCTGVVKPDIVFFGEPLPQRFLLHVVDFPMADLLLILGTSLEVEPFASLTEAVRSSVPRLLINRDLVGPLAWHPRSRDVAQLGDVVHGVESLVELLGWTEEMRDLVQRETGKLDGPDK
DLAT K259 Lipoyl peptide
  catalytic efficiency, fold lower than for DLAT acetyl: this efficiency was 13-fold lower than for DLAT acetyl
  in vitro deacylation kinetics: SIRT3 showed some enzymatic activity towards DLAT lipoyl
